The target of one test is T1, ADR1A (Homo sapiens, UniProt P35348).
T1 construct: Eurofins Cerep (external service)
T1 sequence (P35348 1-466): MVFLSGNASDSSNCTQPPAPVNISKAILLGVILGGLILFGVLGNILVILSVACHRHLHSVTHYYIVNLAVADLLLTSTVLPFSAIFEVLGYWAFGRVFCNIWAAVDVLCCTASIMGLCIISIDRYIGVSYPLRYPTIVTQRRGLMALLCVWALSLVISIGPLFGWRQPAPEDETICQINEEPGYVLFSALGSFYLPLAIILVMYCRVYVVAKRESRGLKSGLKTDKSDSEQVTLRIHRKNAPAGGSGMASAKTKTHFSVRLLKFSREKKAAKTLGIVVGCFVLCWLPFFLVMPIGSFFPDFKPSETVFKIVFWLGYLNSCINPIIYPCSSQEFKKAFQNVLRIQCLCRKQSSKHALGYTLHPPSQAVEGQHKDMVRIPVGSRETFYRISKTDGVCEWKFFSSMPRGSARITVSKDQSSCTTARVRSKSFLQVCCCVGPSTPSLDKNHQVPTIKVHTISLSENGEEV
Kind of test: Binding assay ADR1A. To be noted: reference compound.

A further test has as its target T2, CXCR5 (Homo sapiens, UniProt P32302).
T2 sequence (P32302 1-372): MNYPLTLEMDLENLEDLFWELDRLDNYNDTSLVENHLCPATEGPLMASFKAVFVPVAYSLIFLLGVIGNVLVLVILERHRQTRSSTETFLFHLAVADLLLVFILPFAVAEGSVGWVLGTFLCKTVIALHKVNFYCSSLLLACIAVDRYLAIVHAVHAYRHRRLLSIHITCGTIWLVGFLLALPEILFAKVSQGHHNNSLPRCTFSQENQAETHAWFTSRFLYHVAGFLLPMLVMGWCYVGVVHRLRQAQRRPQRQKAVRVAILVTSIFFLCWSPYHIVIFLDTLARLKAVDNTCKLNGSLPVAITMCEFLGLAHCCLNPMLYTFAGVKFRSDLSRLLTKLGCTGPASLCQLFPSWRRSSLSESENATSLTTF
Kind of test: Cellular functional assay CXCR5. To be noted: reference agonist.

For a further test, the target named is T3, CXCR3 (Homo sapiens, UniProt P49682).
T3 sequence (P49682 1-368): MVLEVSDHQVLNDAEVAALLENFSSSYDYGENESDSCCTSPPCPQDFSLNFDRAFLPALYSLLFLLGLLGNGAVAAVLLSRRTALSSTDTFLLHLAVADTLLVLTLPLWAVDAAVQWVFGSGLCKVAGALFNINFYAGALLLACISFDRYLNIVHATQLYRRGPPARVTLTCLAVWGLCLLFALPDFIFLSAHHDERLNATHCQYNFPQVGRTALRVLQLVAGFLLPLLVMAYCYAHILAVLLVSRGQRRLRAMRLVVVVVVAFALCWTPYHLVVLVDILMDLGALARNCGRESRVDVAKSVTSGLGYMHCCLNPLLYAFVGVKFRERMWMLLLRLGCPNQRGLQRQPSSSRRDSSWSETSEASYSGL
As to the kind of experiment: Cellular functional assay CXCR3. The settings on record: reference agonist.

Another test has as its target T4, CXCR1 (Homo sapiens, UniProt P25024).
T4 sequence (P25024 1-350): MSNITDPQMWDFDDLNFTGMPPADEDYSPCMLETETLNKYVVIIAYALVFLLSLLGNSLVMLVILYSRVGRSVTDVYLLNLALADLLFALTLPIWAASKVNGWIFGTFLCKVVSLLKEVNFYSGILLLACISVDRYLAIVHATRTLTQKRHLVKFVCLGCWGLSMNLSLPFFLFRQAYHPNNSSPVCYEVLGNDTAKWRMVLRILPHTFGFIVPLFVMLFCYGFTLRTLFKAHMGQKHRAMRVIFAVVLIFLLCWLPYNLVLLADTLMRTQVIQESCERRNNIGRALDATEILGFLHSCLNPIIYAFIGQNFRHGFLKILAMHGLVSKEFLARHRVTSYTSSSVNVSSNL
Kind of test: Cellular functional assay CXCR1. The settings on record: reference agonist.

In another test the target is T5, CCR4 (Homo sapiens, UniProt P51679).
T5 sequence (P51679 1-360): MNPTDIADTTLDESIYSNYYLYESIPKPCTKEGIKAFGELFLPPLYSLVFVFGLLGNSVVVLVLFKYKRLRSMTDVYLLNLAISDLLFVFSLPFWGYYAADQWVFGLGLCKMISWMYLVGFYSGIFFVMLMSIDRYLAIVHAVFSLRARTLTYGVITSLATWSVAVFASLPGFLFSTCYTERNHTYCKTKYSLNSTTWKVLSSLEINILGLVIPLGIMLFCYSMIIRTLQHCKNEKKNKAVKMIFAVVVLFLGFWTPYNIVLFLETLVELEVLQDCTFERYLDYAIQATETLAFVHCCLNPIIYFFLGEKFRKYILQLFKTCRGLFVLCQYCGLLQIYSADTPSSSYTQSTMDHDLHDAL
Kind of test: Cellular functional assay CCR4. The settings on record: reference agonist.

A further test addresses CCR8 (Homo sapiens, UniProt P51685). Kind of test: Cellular functional assay CCR8. The settings on record: reference agonist.
A further test deals with T6, CCR10 (Homo sapiens, UniProt P46092).
T6 sequence (P46092 1-362): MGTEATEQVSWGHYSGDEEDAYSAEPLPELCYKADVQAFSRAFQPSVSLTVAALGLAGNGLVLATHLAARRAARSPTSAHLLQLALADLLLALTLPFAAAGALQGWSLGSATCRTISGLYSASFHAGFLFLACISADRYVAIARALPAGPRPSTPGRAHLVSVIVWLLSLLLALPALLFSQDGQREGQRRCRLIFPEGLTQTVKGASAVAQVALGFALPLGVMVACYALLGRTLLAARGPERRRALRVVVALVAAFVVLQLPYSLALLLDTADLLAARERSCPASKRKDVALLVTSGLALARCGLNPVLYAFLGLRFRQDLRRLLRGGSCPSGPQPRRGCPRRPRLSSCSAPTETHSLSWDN
As to the kind of experiment: Cellular functional assay CCR10. The settings on record: reference agonist.

The target in a further test is T7, CCR9 (Homo sapiens, UniProt P51686).
T7 sequence (P51686 1-369): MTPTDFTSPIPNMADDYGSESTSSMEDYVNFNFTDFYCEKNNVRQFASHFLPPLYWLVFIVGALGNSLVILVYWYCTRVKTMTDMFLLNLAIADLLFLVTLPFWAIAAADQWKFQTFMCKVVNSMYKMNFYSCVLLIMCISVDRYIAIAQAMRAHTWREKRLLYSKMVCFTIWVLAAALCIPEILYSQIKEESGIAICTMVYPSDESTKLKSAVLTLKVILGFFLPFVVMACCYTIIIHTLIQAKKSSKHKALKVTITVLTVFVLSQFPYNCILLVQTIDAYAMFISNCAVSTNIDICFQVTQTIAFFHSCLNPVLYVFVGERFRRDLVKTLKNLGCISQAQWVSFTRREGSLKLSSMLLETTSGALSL
As to the kind of experiment: Cellular functional assay CCR9. To be noted: reference agonist.

For a further test, the target named is CXCR6 (Homo sapiens, UniProt O00574). Kind of test: Cellular functional assay CXCR6. The settings on record: reference agonist.
Chain of CXCR6 (O00574 whole entry): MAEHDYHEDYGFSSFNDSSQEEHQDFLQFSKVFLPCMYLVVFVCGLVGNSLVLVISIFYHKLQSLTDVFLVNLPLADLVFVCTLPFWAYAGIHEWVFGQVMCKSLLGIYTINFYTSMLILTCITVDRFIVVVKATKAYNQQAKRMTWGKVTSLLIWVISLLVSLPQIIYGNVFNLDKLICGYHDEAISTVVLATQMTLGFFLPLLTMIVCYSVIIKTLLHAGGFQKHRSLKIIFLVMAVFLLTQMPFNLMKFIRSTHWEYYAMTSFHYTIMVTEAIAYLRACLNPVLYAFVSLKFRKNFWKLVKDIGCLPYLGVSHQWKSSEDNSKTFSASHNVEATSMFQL
The target in another test is CXCR4 (Homo sapiens, UniProt P61073). Kind of test: Cellular functional assay CXCR4. To be noted: reference antagonist.
Chain of CXCR4 (P61073 whole entry): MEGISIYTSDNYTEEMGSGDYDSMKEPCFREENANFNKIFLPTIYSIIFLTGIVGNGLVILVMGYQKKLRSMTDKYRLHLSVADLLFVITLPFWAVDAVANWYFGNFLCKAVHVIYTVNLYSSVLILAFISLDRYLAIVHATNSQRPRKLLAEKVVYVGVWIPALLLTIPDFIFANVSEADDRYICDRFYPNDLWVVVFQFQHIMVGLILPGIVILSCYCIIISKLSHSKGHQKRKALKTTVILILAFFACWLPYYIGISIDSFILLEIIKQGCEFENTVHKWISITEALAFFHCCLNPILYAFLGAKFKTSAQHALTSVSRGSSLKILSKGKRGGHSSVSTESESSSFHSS

Our source for the IC50 and EC50 values is publication PMC7176092, “Development of the first in vivo GPR17 ligand through an iterative drug discovery pipeline: A novel disease-modifying strategy for multiple sclerosis” (PLoS ONE, 2020).

Chain of CCR8 (P51685 whole entry): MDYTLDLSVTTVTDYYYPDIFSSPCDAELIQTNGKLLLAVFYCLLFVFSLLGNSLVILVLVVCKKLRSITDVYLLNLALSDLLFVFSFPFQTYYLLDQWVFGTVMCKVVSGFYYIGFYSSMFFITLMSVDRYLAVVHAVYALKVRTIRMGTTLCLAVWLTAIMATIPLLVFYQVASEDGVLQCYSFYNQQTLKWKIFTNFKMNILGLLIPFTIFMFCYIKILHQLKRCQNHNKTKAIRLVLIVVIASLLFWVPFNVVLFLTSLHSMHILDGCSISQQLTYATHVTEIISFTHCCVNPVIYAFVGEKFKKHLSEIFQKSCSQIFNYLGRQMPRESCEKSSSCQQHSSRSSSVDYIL

`COc1cccc(OC)c1OCCNCC1COc2ccccc2O1` (stereo not shown) [WB 4101, reference compound] gave an IC50 at ADR1A of 0.39 nM. In turn, “CXCL13/BLC/BCA-1: chemokine, reference agonist for CXCR5” returned an EC50 with CXCR5 of 3.8 nM. “I-TAC: chemokine, reference agonist for CXCR3”: a half-maximal response with CXCR3 (EC50) required 2.3 nM. In turn, “rhIL-8: recombinant chemokine, reference agonist for CXCR1” returned an EC50 in the test with CXCR1 of 4.7 nM. This counts as single-digit nanomolar.

B1: TARC: chemokine, reference agonist for CCR4 (protein, UniProt Q92583 24-94, looked up)
C-C motif chemokine 17: ARGTNVGRECCLEYFKGAIPLRKLKTWYQTSEDCSRDAIVFVTVQGRAICSDPNNKRVKNAVKYLQSLERS
Turning to B1, in the test with CCR4, a half-maximal effect (EC50) was put at 0.34 nM.

B2: I-309: chemokine, reference agonist for CCR8 (protein, UniProt P22362 24-96, looked up)
C-C motif chemokine 1: KSMQVPFSRCCFSFAEQEIPLRAILCYRNTSSICSNEGLIFKLKRGKEACALDTVGWVQRHRKMLRHCPSKRK
On to B2, for which the response with CCR8 was half-maximal at 0.72 nM (EC50). This counts as sub-nanomolar.

B3: CTACK/CCL27: chemokine, reference agonist for CCR10 (protein, UniProt Q9Y4X3 25-112, looked up)
C-C motif chemokine 27: FLLPPSTACCTQLYRKPLSDKLLRKVIQVELQEADGDCHLQAFVLHLAQRSICIHPQNPSLSQWFEHQERKLHGTLPKLNFGMLRKMG
Consider B3, for which, in the test with CCR10, the EC50 came out at 5 nM.

B4: CCL25: chemokine, reference agonist for CCR9 (protein, UniProt O15444 24-150, looked up)
C-C motif chemokine 25: QGVFEDCCLAYHYPIGWAVLRRAWTYRIQEVSGSCNLPAAIFYLPKRHRKVCGNPKSREVQRAMKLLDARNKVFAKLHHNTQTFQAGPHAVKKLSSGNSKLSSSKFSNPISSSKRNVSLLISANSGL
With B4, the half-maximal effective concentration (EC50) with CCR9 worked out at 2 nM.

B5: CXCL16: chemokine, reference agonist for CXCR6 (protein, UniProt Q9H2A7 30-254, looked up)
C-X-C motif chemokine 16: NEGSVTGSCYCGKRISSDSPPSVQFMNRLRKHLRAYHRCLYYTRFQLLSWSVCGGNKDPWVQELMSCLDLKECGHAYSGIVAHQKHLLPTSPPISQASEGASSDIHTPAQMLLSTLQSTQRPTLPVGSLSSDKELTRPNETTIHTAGHSLAAGPEAGENQKQPEKNAGPTARTSATVPVLCLLAIIFILTAALSYVLCKRRRGQSPQSSPDLPVHYIPVAPDSNT
In the test with CXCR6, B5 showed an EC50 of 1.6 nM.

B6: MIP-II: reference antagonist for CXCR4 (protein)
chain: LGASWHRPDKCCLGYQKRPLPQVLLSSWYPTSQLCSKPGVIFLTKRGRQVCADKSKDWVKKLMQQLPVTAR
On to B6, for which it took 150 nM to reach half-maximal inhibition with CXCR4 (IC50).
